The text below walks through data of patent publication US7553821B2, “Methods for selectively modulating survivin apoptosis pathways” (Yale University, priority 2000, dated 2009).

For this experiment, the target named is T1, p34^cdc2-cyclin B1 (Homo sapiens, UniProt P06493).
T1 construct: host or cells: baculovirus expression system
Put plainly: In vitro kinase assay with p34cdc2-cyclin B1. Type of experiment: biochemical. Conditions: recombinant protein as substrate, 32P-ATP, 30 min at 30° C., autoradiography. As for the experimental part:
FIG. 1B. In vitro kinase assay. Wild type (WT) survivin, survivin(T34A) (T34A), or control (H1) were incubated with baculovirus-expressed p34^cdc2-cyclin B1 or cdk2-cyclin E in kinase buffer plus 10 μCi γ-^32P-ATP for 30 min at 30° C. Samples were separated by SDS gel electrophoresis and radioactive bands were visualized by autoradiography. Equal protein loading was confirmed by Coomassie blue staining of the gel.
Transfection experiments. For transient transfection, HeLa cells in C-6 tissue culture plates (Costar, Cambridge, Mass.) at ˜60-70% confluency, were incubated in 1 ml of serum-free OptiMEM medium (Life Technologies, Gaithersburg, Md.) for 20 min, and transfected with 2.5 μg of the various plasmid cDNAs plus 9 μl Lipofectamine (Life Technologies). After a 5 h incubation at 37° C., the mixture was aspirated and substituted with complete growth medium for 48-72 h. To generate stable YUSAC-2 transfectants, a survivin(T34A) cDNA was inserted into the HindIII-SpeI sites of the pTet-splice vector (Dr. D. Schatz, Yale University School of Medicine), downstream of the regulatory sequences of the Tet-resistance operon (TetO). […] Gated GFP-expressing cells were analyzed for DNA content by flow cytometry on a FACSort (Becton Dickinson, San Jose, Calif.) using a Cell Quest software. […]

T1 sequence (P06493 whole entry): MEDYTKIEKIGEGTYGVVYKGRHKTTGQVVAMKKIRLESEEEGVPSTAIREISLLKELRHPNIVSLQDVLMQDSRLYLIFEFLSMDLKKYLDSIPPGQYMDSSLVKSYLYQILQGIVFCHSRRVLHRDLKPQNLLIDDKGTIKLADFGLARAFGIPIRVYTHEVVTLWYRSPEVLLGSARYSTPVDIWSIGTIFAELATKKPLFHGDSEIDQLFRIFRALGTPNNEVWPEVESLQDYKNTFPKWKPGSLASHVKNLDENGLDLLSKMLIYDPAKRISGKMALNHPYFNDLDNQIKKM
T1 sequence (P14635 whole entry partner): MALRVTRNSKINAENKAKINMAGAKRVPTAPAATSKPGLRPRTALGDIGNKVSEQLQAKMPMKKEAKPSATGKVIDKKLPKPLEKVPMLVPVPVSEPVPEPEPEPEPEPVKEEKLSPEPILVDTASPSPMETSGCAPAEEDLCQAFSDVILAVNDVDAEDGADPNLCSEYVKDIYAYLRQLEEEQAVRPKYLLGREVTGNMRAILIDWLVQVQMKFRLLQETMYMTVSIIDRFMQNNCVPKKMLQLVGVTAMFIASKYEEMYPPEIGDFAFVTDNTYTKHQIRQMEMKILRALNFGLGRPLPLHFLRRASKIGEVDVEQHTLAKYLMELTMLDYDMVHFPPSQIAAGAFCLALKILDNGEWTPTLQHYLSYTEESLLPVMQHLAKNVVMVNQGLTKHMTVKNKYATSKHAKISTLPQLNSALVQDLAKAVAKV

Consider “survivin(T34A): dominant-negative, non-phosphorylatable survivin mutant with Thr34→Ala substitution, expressed from transfected cDNA (also HA- or GFP-tagged)”, for which the “phosphorylation by p34^cdc2-cyclin B1” value is “abolished phosphorylation”.
